# Measured values from article PMC7072298 (2020).
# B1: N-terminal FN 30-kDa heparin-binding fragment (FN30) (domain or fragment)
# chain: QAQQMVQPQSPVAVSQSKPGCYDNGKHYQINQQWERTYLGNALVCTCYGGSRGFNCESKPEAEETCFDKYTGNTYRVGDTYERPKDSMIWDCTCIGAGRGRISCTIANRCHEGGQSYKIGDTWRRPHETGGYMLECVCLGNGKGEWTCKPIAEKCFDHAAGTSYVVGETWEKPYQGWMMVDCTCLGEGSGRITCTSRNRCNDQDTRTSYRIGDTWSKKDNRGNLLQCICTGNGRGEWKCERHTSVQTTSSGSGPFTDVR
# B2: 45-kDa gelatin-binding FN fragment (FN45) (domain or fragment)
# chain: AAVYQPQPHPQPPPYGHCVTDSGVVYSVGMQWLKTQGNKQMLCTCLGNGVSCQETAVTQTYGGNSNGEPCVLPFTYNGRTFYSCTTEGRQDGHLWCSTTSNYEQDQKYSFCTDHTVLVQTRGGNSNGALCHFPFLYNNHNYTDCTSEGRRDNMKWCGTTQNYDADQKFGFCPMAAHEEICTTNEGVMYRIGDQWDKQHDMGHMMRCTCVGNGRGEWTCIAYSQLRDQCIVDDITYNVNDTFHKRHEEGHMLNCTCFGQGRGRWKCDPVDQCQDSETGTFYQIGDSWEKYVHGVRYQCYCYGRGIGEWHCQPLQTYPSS
# Target: HSP90αM domain (solid phase assays of Figure 2B and 2C)
# Experiment: ELISA
binder,measurement,value
B1,Kd,65.1 nM
B2,Kd,222 nM
